Results on one substance are retold here after IntAct's records for PubMed 19716822.

The assay deals with srk2e_arath SRK2E (UniProt Q940H6).
Sequence of srk2e_arath SRK2E (Q940H6 whole entry): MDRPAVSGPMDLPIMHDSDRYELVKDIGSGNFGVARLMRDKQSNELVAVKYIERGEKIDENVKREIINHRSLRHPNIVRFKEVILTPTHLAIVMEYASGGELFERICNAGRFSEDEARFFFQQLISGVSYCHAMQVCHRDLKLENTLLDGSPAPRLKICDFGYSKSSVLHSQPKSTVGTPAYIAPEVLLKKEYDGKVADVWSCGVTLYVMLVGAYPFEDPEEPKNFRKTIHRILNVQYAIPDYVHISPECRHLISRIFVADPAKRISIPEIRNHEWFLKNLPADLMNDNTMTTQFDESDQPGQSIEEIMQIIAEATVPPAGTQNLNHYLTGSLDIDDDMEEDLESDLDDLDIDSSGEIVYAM

Regarding “Respiratory burst oxidase homolog protein F (Arabidopsis thaliana (Mouse-ear cress)), O48538 S174A”, the “effect of a mutation on the interaction” value is “decreasing interaction”.
